The nature of data set [1]: In vivo half-life measurement in rats (Human relaxin-2 ELISA of blood samples). The following applies: SD rats, caudal vein injection, 0.5 mg/kg/rat. Further details: species or system Sprague Dawley (SD) rats. As for the experimental part: A total of 12 experimental Sprague Dawley (SD) rats (6 male and 6 female) were used in this test (purchased from SINO-BRITSH SIPPR/BK LAB. ANIMAL LTD., CO, Certificate No.: SCXK (Shanghai) 2008-0016, 160-180 g), and the maintenance environment was SPF grade. SD rats were kept for 3 days in the laboratory environment, at a temperature of 20-25° C., with a humidity of 40-60%. The wild-type human relaxin analog 800828 (WT, prepared in Example 29) with the original sequence was used as a positive control in this test.
Rats were randomly divided into 3 groups, with 4 rats in each group, half males and half females. Control (saline) and human relaxin (analog 800814, WT 800828) were injected into the caudal vein of the rats (4 rats/sample) with a dose of 0.5 mg/kg/rat. Blood samples were taken from the rats' orbital sinuses at 0 h, 0.03 h, 0.08 h, 0.25 h, 0.5 h, 1 h, 1.5 h, 2 h, 4 h, 6 h and 8 h after the injections. Blood samples were centrifuged, and the supernatant was collected and stored at −20° C. for further analysis. After blood collection, the content of relaxin in the blood samples was detected using the Human relaxin-2 Quantikine ELISA Kit (R&D). The T1/2 of the test drug was calculated by T1/2 formula and EXCEL.

Data set [2] has as its system THP-1 cells. The data set can be described thus: In vitro bioactivity assay: cAMP production induced in THP-1 cells (cAMP ELISA). Format: cell-based. The following applies: 30 min incubation, forskolin + IBMX, average of three experiments, listed as 800828 (WT). As for the experimental part: The disclosed human relaxin analog (800814) binds to the receptor on THP-1 cells, and induces the production of cAMP in THP-1 cells. To determine the in vitro activity of human relaxin analog (800814), the generation of cAMP was detected. The wild-type human relaxin analog 800828 (WT) (prepared in Example 29) with the original sequence was used in this test as a positive control.
The cells used in the experiments, i.e., THP-1 (ATCC, Product Number: TIB-202™), were cultured in suspension at 37° C., 5% CO2, and used for experiments or passage when the cells were preferably in the logarithmic growth phase. THP-1 cells can be passaged every 2-3 days, with a dilution ratio of 1:3 to 1:4. The medium was RPMI1640, with 0.05 mM b-mercaptoethanol and 10% FBS. On the day of the experiment, THP-1 cells in logarithmic growth phase were collected by centrifugation, and resuspended in DMEM/F12. The cell density was adjusted to 2×10^6 cells/ml, and the cells were seeded in a 96-well plate (50 μl each well) and incubated in a 37° C. incubator for 30 minutes. […] The content of cAMP was detected with a CAMP ELISA KIT (CELL BIOLABS).
Data obtained in the above experiment was fit to a nonlinear curve using Graphpad Prism, and the EC50 value (ng/ml) of CAMP induced in the THP-1 cells by human relaxin analog (800814) was determined.

Data set [3] has as its system ICR mice. The data set is described as follows: In vivo biological activity: pubis width in estradiol-primed female ICR mice. Conditions: s.c. 6 μg/100 μl/mouse, 40 hours later, ratio to solvent control group (=1). As for the experimental part: ICR mice (female, purchased from SINO-BRITSH SIPPR/BK LAB. ANIMAL LTD., CO, Certificate No.: SCXK (Shanghai) 2008-0016, 18-20 g) were used in this test, and the maintenance environment was SPF grade. After their purchase, ICR mice were kept in the laboratory environment for two weeks in the following conditions: illumination: 12/12-hour light/dark cycle regulation, temperature: 20-25° C.; humidity: 40-60%. The wild-type human relaxin analog 800828 (WT, prepared in Example 29) with the original sequence was used as a positive control in this test.
One week before the experiment, each female ICR mouse was subcutaneously injected with 5 μg/100 μ1/animal of β-estradiol (water-insoluble, slightly soluble in oil), which was mixed with olive oil. Six days later, ICR mice with a body weight less than 22 g were excluded, and the rest of the animals were equally divided into groups according to body weight. The animals were subcutaneously injected with relaxin 800828 (WT) ([…]/100 μl/mouse), 800814 (6 μg/100 μl/mouse) or 0.1% benzopurpurine 4B saline (solvent control group). Relaxin 800828 (WT) and 800814 were dissolved in physiological saline containing 0.1% benzopurpurin 4B. 40 hours later, the pubic bones were removed, skin and muscle were removed from the bone, and the pubis width was measured under microscope. […]

Broadly, the half-life is the time in which the quantity being followed falls by half. Turning to `CC[C@H](C)[C@@H]1NC(=O)[C@H](C)NC(=O)[C@H]([C@@H](C)CC)NC(=O)[C@H](CCC(N)=O)NC(=O)[C@H](C)NC(=O)[C@H](CCCNC(=N)N)NC(=O)[C@H](C(C)C)NC(=O)[C@H](CC(C)C)NC(=O)[C@H](CC(=O)O)NC(=O)[C@H](CCCNC(=N)N)NC(=O)CNC(=O)[C@@H](NC(=O)[C@H](CC(C)C)NC(=O)[C@H](CCCCN)NC(=O)[C@@H](NC(=O)[C@@H](NC(=O)[C@H](CCC(=O)O)NC(=O)[C@H](CCC(=O)O)NC(=O)[C@H](CCSC)NC(=O)[C@H](Cc2c[nH]c3ccccc23)NC(=O)[C@H](CO)NC(=O)[C@@H](N)CC(=O)O)C(C)C)[C@@H](C)CC)CSSC[C@@H]2NC(=O)[C@@H](NC(=O)[C@H](CCCCN)NC(=O)[C@H](CC(N)=O)NC(=O)[C@H](C)NC(=O)[C@H](CC(C)C)NC(=O)[C@H](C)NC(=O)[C@H](CO)NC(=O)[C@H](Cc3ccc(O)cc3)NC(=O)[C@H](CC(C)C)NC(=O)[C@@H](N)CC(=O)O)CSSC[C@H](NC(=O)CNC(=O)[C@H](C(C)C)NC(=O)[C@H](Cc3c[nH]cn3)NC2=O)C(=O)N[C@@H]([C@@H](C)O)C(=O)N[C@@H](CCCCN)C(=O)N[C@@H](CCCNC(=N)N)C(=O)N[C@@H](CO)C(=O)N[C@@H](CC(C)C)C(=O)N[C@@H](C)C(=O)N[C@@H](CCCNC(=N)N)C(=O)N[C@@H](Cc2ccccc2)C(=O)N[C@H](C(=O)O)CSSC[C@@H](C(=O)NCC(=O)N[C@@H](CCSC)C(=O)N[C@@H](CO)C(=O)N[C@H](C(=O)N[C@@H](Cc2c[nH]c3ccccc23)C(=O)N[C@@H](CO)C(=O)O)[C@@H](C)O)NC1=O` [relaxin 800814], the T1/2 result in data set [1] is “does not affect its half-life”. In data set [1] (both sexes, Sprague Dawley, supernatant of centrifuged blood, iv), this molecule had a half-life of 52.8 min.

For “relaxin 800828: wild-type human relaxin with the original sequence, expressed in E. coli, refolded and digested; positive control; precursor SEQ ID NO: 23”, the “EC50 of cAMP induced in THP-1 cells” value in data set [2] is 3.05 ng/mL. Further, in data set [3], the relative pubic width is listed as 1.24. Besides, in data set [1], the T1/2 amounted to 52.2 min.

Values taken from patent publication US20160326230A1, “HUMAN RELAXIN ANALOGUE, PHARMACEUTICAL COMPOSITION OF SAME, AND PHARMACEUTICAL APPLICATION OF SAME” (SHANGHAI HENGRUI PHARMACEUTICAL CO., LTD., priority 2013, published 2016).
